Experimental data published in patent US20150315556.

Columns and labels:
[1] = molecular target: T1, GLA2 rationally-designed meganuclease (I-CreI derivative)
T1 chain: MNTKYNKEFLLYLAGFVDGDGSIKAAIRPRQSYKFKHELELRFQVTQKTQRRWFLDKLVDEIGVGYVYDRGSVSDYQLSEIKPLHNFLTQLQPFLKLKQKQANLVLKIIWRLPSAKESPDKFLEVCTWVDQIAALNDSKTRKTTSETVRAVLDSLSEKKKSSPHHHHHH

[2] = molecular target: T2, BRP2 rationally-designed meganuclease (I-CreI derivative)
T2 chain: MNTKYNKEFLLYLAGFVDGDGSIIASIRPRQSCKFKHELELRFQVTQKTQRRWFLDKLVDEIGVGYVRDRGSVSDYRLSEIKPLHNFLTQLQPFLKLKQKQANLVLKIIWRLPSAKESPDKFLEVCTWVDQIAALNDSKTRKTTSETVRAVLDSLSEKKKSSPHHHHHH

[3] = molecular target: T3, ANT2 rationally-designed meganuclease (I-CreI derivative)
T3 chain: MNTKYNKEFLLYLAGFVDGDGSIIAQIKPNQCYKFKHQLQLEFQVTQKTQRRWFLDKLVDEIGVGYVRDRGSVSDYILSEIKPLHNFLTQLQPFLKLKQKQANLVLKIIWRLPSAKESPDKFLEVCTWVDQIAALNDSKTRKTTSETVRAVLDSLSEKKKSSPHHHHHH

[4] = molecular target: T4, LAM2 variant in which glutamic acids at positions 8 and 61 were changed to lysine
T4 chain: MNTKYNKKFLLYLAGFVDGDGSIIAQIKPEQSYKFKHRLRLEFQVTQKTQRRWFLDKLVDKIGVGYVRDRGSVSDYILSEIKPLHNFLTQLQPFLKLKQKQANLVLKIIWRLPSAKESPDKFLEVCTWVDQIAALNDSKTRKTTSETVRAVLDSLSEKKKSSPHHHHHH

[5] = molecular target: T5, HGH2 rationally-designed meganuclease (I-CreI derivative; partner of HGH1, half-site SEQ ID NO: 56)
T5 chain: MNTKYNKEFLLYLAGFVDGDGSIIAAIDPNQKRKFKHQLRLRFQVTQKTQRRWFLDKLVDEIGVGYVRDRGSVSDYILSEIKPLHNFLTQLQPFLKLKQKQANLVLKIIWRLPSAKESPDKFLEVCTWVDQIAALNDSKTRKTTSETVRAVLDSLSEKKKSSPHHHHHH

[6] = molecular target: T6, ACH2 rationally-designed meganuclease (I-CreI derivative)
T6 chain: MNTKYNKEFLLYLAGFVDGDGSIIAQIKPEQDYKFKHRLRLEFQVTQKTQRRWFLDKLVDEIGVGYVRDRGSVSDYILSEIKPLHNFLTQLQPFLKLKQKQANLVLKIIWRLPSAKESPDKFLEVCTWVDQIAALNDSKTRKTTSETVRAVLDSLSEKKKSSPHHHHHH

[7] = molecular target: T7, MGC2 rationally-designed meganuclease (I-CreI derivative)
T7 chain: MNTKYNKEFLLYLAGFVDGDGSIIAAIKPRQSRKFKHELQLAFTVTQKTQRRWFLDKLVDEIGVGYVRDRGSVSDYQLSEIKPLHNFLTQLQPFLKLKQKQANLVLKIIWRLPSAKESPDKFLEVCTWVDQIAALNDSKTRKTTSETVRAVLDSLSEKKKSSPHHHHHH

[8] = molecular target: T8, CF2 rationally-designed meganuclease (I-CreI derivative)
T8 chain: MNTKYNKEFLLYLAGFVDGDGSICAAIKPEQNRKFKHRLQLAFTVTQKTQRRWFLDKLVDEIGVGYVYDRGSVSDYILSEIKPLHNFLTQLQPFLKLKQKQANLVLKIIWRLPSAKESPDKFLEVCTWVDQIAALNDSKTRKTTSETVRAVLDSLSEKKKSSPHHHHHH

[9] = molecular target: T9, URA2 rationally-designed meganuclease (I-CreI derivative)
T9 chain: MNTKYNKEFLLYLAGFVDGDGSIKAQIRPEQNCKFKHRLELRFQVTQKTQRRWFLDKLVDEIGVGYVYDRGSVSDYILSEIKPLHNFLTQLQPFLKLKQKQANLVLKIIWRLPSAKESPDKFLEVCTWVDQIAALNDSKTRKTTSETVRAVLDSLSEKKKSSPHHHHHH

[10] = molecular target: T10, LAM2 rationally-designed meganuclease (I-CreI derivative)
T10 chain: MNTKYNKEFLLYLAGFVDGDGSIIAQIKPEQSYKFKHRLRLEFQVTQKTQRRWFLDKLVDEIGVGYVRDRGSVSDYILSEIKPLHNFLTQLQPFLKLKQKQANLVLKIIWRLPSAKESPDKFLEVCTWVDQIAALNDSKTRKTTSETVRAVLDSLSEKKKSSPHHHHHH

[11] = molecular target: T11, PDX2 rationally-designed meganuclease (I-CreI derivative)
T11 chain: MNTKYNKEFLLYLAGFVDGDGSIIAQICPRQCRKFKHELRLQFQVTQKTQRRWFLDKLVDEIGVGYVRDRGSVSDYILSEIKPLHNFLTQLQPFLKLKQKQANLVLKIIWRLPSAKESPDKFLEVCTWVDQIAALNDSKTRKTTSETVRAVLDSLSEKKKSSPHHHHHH

[12] = molecular target: T12, HGH2 rationally-designed meganuclease (I-CreI derivative; partner of CYP, half-site SEQ ID NO: 76)
T12 chain: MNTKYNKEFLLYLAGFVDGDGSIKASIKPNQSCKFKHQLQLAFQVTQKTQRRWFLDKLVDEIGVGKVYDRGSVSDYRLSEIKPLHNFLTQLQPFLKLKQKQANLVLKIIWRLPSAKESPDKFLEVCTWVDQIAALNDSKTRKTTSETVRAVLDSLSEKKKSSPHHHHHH

B1: GLA1 rationally-designed meganuclease (I-CreI derivative) (protein)
chain: MNTKYNKEFLLYLAGFVDGDGSIKAAIKPRQSYKFKHELSLAFQVTQKTQRRWFLDKLVDEIGVGYVYDRGSVSDYQLCEIKPLHNFLTQLQPFLKLKQKQANLVLKIIWRLPSAKESPDKFLEVCTWVDQIAALNDSKTRKTTSETVRAVLDSLSEKKKSSPHHHHHH
- cleavage of a linearized DNA substrate containing the intended non-palindromic recognition sequence by the 1:1 mixture [1]: each rationally-designed meganuclease heterodimer cleaves its intended DNA site

B2: BRP1 rationally-designed meganuclease (I-CreI derivative) (protein)
chain: MNTKYNKEFLLYLAGFVDGDGSIKAQIRPRQCRKFKHELELAFQVTQKTQRRWFLDKLVDEIGVGKVYDRGSVSDYELSEIKPLHNFLTQLQPFLKLKQKQANLVLKIIWRLPSAKESPDKFLEVCTWVDQIAALNDSKTRKTTSETVRAVLDSLSEKKKSSPHHHHHH
- cleavage of a linearized DNA substrate containing the intended non-palindromic recognition sequence by the 1:1 mixture [2]: each rationally-designed meganuclease heterodimer cleaves its intended DNA site

B3: ANT1 rationally-designed meganuclease (I-CreI derivative) (protein)
chain: MNTKYNKEFLLYLAGFVDGDGSIIAQIAPNQNCKFKHQLQLRFQVTQKTQRRWFLDKLVDEIGVGYVRDRGSVSDYILSEIKPLHNFLTQLQPFLKLKQKQANLVLKIIWRLPSAKESPDKFLEVCTWVDQIAALNDSKTRKTTSETVRAVLDSLSEKKKSSPHHHHHH
- cleavage of a linearized DNA substrate containing the intended non-palindromic recognition sequence by the 1:1 mixture [3]: each rationally-designed meganuclease heterodimer cleaves its intended DNA site

B4: LAM1 variant in which lysines at positions 7, 57 and 96 were changed to glutamic acids (protein)
chain: MNTKYNEEFLLYLAGFVDGDGSIIAQIDPRQCRKFKHELRLRFQVTQKTQRRWFLDELVDEIGVGYVRDRGSVSDYILSEIKPLHNFLTQLQPFLELKQKQANLVLKIIWRLPSAKESPDKFLEVCTWVDQIAALNDSKTRKTTSETVRAVLDSLSEKKKSSPHHHHHH
- cleavage of the LAM1/LAM2 hybrid site against the two palindromic sites by the co-expressed interface variants [4]: the LAM1/LAM2 hybrid site was found to be cleaved preferentially over the two palindromic sites

B5: HGH1 rationally-designed meganuclease (I-CreI derivative) (protein)
chain: MNTKYNKEFLLYLAGFVDGDGSIIAQIDPNQDCKFKHQLRLRFQVTQKTQRRWFLDKLVDEIGVGYVRDRGSVSDYILSEIKPLHNFLTQLQPFLKLKQKQANLVLKIIWRLPSAKESPDKFLEVCTWVDQIAALNDSKTRKTTSETVRAVLDSLSEKKKSSPHHHHHH
- cleavage of a linearized DNA substrate containing the intended non-palindromic recognition sequence by the 1:1 mixture [5]: each rationally-designed meganuclease heterodimer cleaves its intended DNA site

B6: ACH1 rationally-designed meganuclease (I-CreI derivative) (protein)
chain: MNTKYNKEFLLYLAGFVDGDGSIIAAIDPEQDCKFKHRLRLRFQVTQKTQRRWFLDKLVDEIGVGYVRDRGSVSDYQLSEIKPLHNFLTQLQPFLKLKQKQANLVLKIIWRLPSAKESPDKFLEVCTWVDQIAALNDSKTRKTTSETVRAVLDSLSEKKKSSPHHHHHH
- cleavage of a linearized DNA substrate containing the intended non-palindromic recognition sequence by the 1:1 mixture [6]: each rationally-designed meganuclease heterodimer cleaves its intended DNA site

B7: MGC1 rationally-designed meganuclease (I-CreI derivative) (protein)
chain: MNTKYNKEFLLYLAGFVDGDGSIKAQIKPNQCYKFKHQLQLAFQVTQKTQRRWFLDKLVDEIGVGYVYDRGSVSDYILSEIKPLHNFLTQLQPFLKLKQKQANLVLKIIWRLPSAKESPDKFLEVCTWVDQIAALNDSKTRKTTSETVRAVLDSLSEKKKSSPHHHHHH
- cleavage of a linearized DNA substrate containing the intended non-palindromic recognition sequence by the 1:1 mixture [7]: each rationally-designed meganuclease heterodimer cleaves its intended DNA site

B8: CF1 rationally-designed meganuclease (I-CreI derivative) (protein)
chain: MNTKYNKEFLLYLAGFVDGDGSICAQIKPNQSYKFKHQLQLAFQVTQKTQRRWFLDKLVDEIGVGYVHDRGSVSDYILSEIKPLHNFLTQLQPFLKLKQKQANLVLKIIWRLPSAKESPDKFLEVCTWVDQIAALNDSKTRKTTSETVRAVLDSLSEKKKSSPHHHHHH
- cleavage of a linearized DNA substrate containing the intended non-palindromic recognition sequence by the 1:1 mixture [8]: each rationally-designed meganuclease heterodimer cleaves its intended DNA site

B9: URA1 rationally-designed meganuclease (I-CreI derivative) (protein)
chain: MNTKYNKEFLLYLAGFVDGDGSIIAQIKPNQSCKFKHQLRLAFTVTQKTQRRWFLDKLVDEIGVGYVRDRGSVSDYILSEIKPLHNFLTQLQPFLKLKQKQANLVLKIIWRLPSAKESPDKFLEVCTWVDQIAALNDSKTRKTTSETVRAVLDSLSEKKKSSPHHHHHH
- cleavage of a linearized DNA substrate containing the intended non-palindromic recognition sequence by the 1:1 mixture [9]: each rationally-designed meganuclease heterodimer cleaves its intended DNA site

B10: LAM1 rationally-designed meganuclease (I-CreI derivative) (protein)
chain: MNTKYNKEFLLYLAGFVDGDGSIIAQIDPRQCRKFKHELRLRFQVTQKTQRRWFLDKLVDEIGVGYVRDRGSVSDYILSEIKPLHNFLTQLQPFLKLKQKQANLVLKIIWRLPSAKESPDKFLEVCTWVDQIAALNDSKTRKTTSETVRAVLDSLSEKKKSSPHHHHHH
- cleavage of the non-palindromic LAM1/LAM2 hybrid DNA site by a 1:1 mixture incubated at 42 C for 20 minutes [10]: The 1:1 mixture of LAM1 and LAM2, however, cleaves all three DNA sites
- cleavage of the non-palindromic LAM1/LAM2 hybrid DNA site by the co-expressed enzyme mixture [10]: The co-expressed enzyme mixture was found to cleave all three sites, including the LAM1/LAM2 hybrid site

B11: PDX1 rationally-designed meganuclease (I-CreI derivative) (protein)
chain: MNTKYNKEFLLYLAGFVDGDGSIIAQIKPNQNCKFKHQLQLAFQVTQKTQRRWFLDKLVDEIGVGYVRDRGSVSDYILSEIKPLHNFLTQLQPFLKLKQKQANLVLKIIWRLPSAKESPDKFLEVCTWVDQIAALNDSKTRKTTSETVRAVLDSLSEKKKSSPHHHHHH
- cleavage of a linearized DNA substrate containing the intended non-palindromic recognition sequence by the 1:1 mixture [11]: each rationally-designed meganuclease heterodimer cleaves its intended DNA site

B12: CYP rationally-designed meganuclease (I-CreI derivative) (protein)
chain: MNTKYNKEFLLYLAGFVDGDGSIIAAIKPNQDYKFKHQLRLAFQVTQKTQRRWFLDKLVDEIGVGYVYDRGSVSDYQLSEIKPLHNFLTQLQPFLKLKQKQANLVLKIIWRLPSAKESPDKFLEVCTWVDQIAALNDSKTRKTTSETVRAVLDSLSEKKKSSPHHHHHH
- cleavage of a linearized DNA substrate containing the intended non-palindromic recognition sequence by the 1:1 mixture [12]: each rationally-designed meganuclease heterodimer cleaves its intended DNA site
